System: Escherichia coli TOP10
Test: shrunken log2 fold change of peptide-encoding DNA abundance (4.5 h post-induction vs induction); higher = less antimicrobial activity (less host growth inhibition)
Settings: time post-induction: 4.5 h; library: site-saturation at positions 5, 18, 19, 20
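Note: peptides expressed intracellularly from a pBAD plasmid library in pooled LB shake-flask culture, induced with 0.3% L-arabinose, DNA abundance read by NGS, three biological replicates, DESeq2 with apeglm shrinkage.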

Sequence	shrunken log2 fold change
RRIRKRPPRLPRPRPRPNHHPRP	-0.182
RRIRDRPPRLPRPRPRPWLCPRP	-0.0939
RRIRLRPPRLPRPRPRPRYIPRP	-0.683
RRIRSRPPRLPRPRPRPKCGPRP	0.397
RRIRERPPRLPRPRPRPFCDPRP	0.211
RRIRPRPPRLPRPRPRPIDQPRP	-0.116
RRIRKRPPRLPRPRPRPDTCPRP	0.0482
RRIRYRPPRLPRPRPRPHFWPRP	-0.257
RRIRGRPPRLPRPRPRPNPFPRP	0.189
RRIRFRPPRLPRPRPRPYWKPRP	-0.0922
RRIRKRPPRLPRPRPRPYLMPRP	-0.0192
RRIRCRPPRLPRPRPRPMFHPRP	-0.723
RRIRTRPPRLPRPRPRPSHNPRP	-0.681
RRIRYRPPRLPRPRPRPNYTPRP	-0.562
RRIRQRPPRLPRPRPRPMHNPRP	-0.28
RRIRCRPPRLPRPRPRPKTMPRP	-0.172
RRIRQRPPRLPRPRPRPFCHPRP	0.00489
RRIRRRPPRLPRPRPRPPDYPRP	0.244
RRIRKRPPRLPRPRPRPHKIPRP	0.134
RRIRMRPPRLPRPRPRPQAFPRP	0.0522
RRIRARPPRLPRPRPRPLHIPRP	-0.559
RRIRTRPPRLPRPRPRPPCGPRP	0.4
RRIRARPPRLPRPRPRPDHTPRP	-0.155
RRIRSRPPRLPRPRPRPCHFPRP	-0.186
RRIRDRPPRLPRPRPRPWHRPRP	-0.017

Sequence	shrunken log2 fold change
RRIRIRPPRLPRPRPRPDYPPRP	-0.584
RRIRVRPPRLPRPRPRPRMRPRP	0.873
RRIRWRPPRLPRPRPRPCKDPRP	-0.381
RRIRERPPRLPRPRPRPQCSPRP	-0.442
RRIRNRPPRLPRPRPRPRIGPRP	0.0705
RRIRPRPPRLPRPRPRPVRHPRP	0.119
RRIRQRPPRLPRPRPRPMFPPRP	-0.181
RRIRYRPPRLPRPRPRPYDTPRP	-0.149
RRIRHRPPRLPRPRPRPCAVPRP	-0.0171
RRIRCRPPRLPRPRPRPAQCPRP	-0.113
RRIRCRPPRLPRPRPRPAFQPRP	0.0486
RRIRERPPRLPRPRPRPSYAPRP	-0.176
RRIRQRPPRLPRPRPRPCFIPRP	-0.353
RRIRCRPPRLPRPRPRPIDYPRP	-0.651
RRIRCRPPRLPRPRPRPPWRPRP	0.751
RRIRSRPPRLPRPRPRPMDPPRP	0.00928
RRIRNRPPRLPRPRPRPIMMPRP	-0.103
RRIRWRPPRLPRPRPRPQKDPRP	-0.154
RRIRARPPRLPRPRPRPSNSPRP	-0.156
RRIRERPPRLPRPRPRPYFQPRP	-0.967
RRIRKRPPRLPRPRPRPPFFPRP	0.476
RRIRGRPPRLPRPRPRPYNNPRP	-0.321
RRIRCRPPRLPRPRPRPRLGPRP	0.485
RRIRVRPPRLPRPRPRPRKKPRP	0.0671
RRIRHRPPRLPRPRPRPLKSPRP	-0.178

Sequence	shrunken log2 fold change
RRIRYRPPRLPRPRPRPVVLPRP	-0.397
RRIRMRPPRLPRPRPRPIRHPRP	0.017
RRIRERPPRLPRPRPRPWMDPRP	-0.101
RRIRSRPPRLPRPRPRPKHNPRP	-0.286
RRIRERPPRLPRPRPRPPMQPRP	0.225
RRIRWRPPRLPRPRPRPCCIPRP	0.0413
RRIRNRPPRLPRPRPRPSYFPRP	-0.699
RRIRSRPPRLPRPRPRPESKPRP	0.385
RRIRVRPPRLPRPRPRPPGIPRP	0.154
RRIRCRPPRLPRPRPRPRYGPRP	-0.499
RRIRLRPPRLPRPRPRPWSAPRP	0.539
RRIRARPPRLPRPRPRPEWEPRP	0.877
RRIRIRPPRLPRPRPRPWLLPRP	-0.0948
RRIRLRPPRLPRPRPRPQLPPRP	0.178
RRIRARPPRLPRPRPRPMPGPRP	-0.0941
RRIRLRPPRLPRPRPRPWSSPRP	-0.469
RRIRCRPPRLPRPRPRPRAAPRP	0.779
RRIRSRPPRLPRPRPRPKIGPRP	-0.0115
RRIRERPPRLPRPRPRPTALPRP	-0.415
RRIRARPPRLPRPRPRPFKRPRP	0.0331
RRIRLRPPRLPRPRPRPQYFPRP	-0.158
RRIRCRPPRLPRPRPRPIYLPRP	-0.457
RRIRHRPPRLPRPRPRPDHAPRP	0.0557
RRIRYRPPRLPRPRPRPMQNPRP	-0.488
RRIRYRPPRLPRPRPRPPFRPRP	-0.0932

— the supplement of paper PMC9112550, “Optimization of the antimicrobial peptide Bac7 by deep mutational scanning” (BMC Biology, 2022)
